B1: Gtr1-myc (natural protein, S. cerevisiae, UniProt Q00582 1-310, looked up)
chain: MSSNNRKKLLLMGRSGSGKSSMRSIIFSNYSAFDTRRLGATIDVEHSHLRFLGNMTLNLWDCGGQDVFMENYFTKQKDHIFQMVQVLIHVFDVESTEVLKDIEIFAKALKQLRKYSPDAKIFVLLHKMDLVQLDKREELFQIMMKNLSETSSEFGFPNLIGFPTSIWDESLYKAWSQIVCSLIPNMSNHQSNLKKFKEIMNALEIILFERTTFLVICSSNGENSNENHDSSDNNNVLLDPKRFEKISNIMKNFKQSCTKLKSGFKTLILNNNIYVSELSSNMVCFIVLKDMNIPQELVLENIKKAKEFFQ
notes: Gtr1, small GTPase (homolog of RagA/B), S. cerevisiae; also called Gtr1/2; source: S. cerevisiae (W303) strain carrying Gtr1-myc, in lysate
B2: GFP-Ait1 (natural protein, S. cerevisiae, UniProt Q12301 1-547, looked up)
chain: MVRLNHAASYFMPIFCSTRPHIVILSALFSISLFSLFYASSELLLHQYDDPLMFKPNSQDYFRTFLLGLFSPFLYYFLKTFLFNINQRFLILNLIVDFPINDVFMLLILIGLAYPQVQDHEGGTIKHKECSWHIIPRQAYIFGISWALGEFTICIIGNLFNYQEIADPNINSGFTHQESANTYCNNNDMSHNDDCGCSTEYRPNVVDRSDITLSKCIEVRNDSSSISNNVYSSEYHPIKPLRSSSSTYGSIRQQPHENKKQLHVPDNSQDDTIIMMNPIDNSLKLTTLDTGDLSFPIDEEQPILKKSFGYTWAVPNENTQNTTKSFTPIKRFIAFSTAYQLVTGLLLMILVVGSNIMLTIGESLILSMYFVYVRGHEGLFTPVVNYFGSRTISNFILCVIIPFISLNFLINTSIYLRRELDDWFNNSQGEFEDDDENTISKRVATNQEYQHPLSANYISMDSPDVINSSPGHFGMNSGQLLGNTTLYYGSLNGDDDDMTNDSALLRFCKKLVKNWRALARNDSFVLGVMVSWSLLVFVTGILSTVYI
notes: Ait1 (Ydl180w), GPCR-like protein of the vacuolar membrane, S. cerevisiae; The strain list is in Supplementary file 3; source: S. cerevisiae (W303) strain carrying GFP-Ait1, in lysate; not shown: GFP, N-terminal, kept

Columns and labels:
GFP-Ait1 = molecular target: B2; test: co-IP; GFP-Ait1 or GFP-Ait1C3v2 immunopurified on anti-GFP beads in nonionic detergent (digitonin) without a crosslinker; blot with anti-Myc and anti-GFP; log phase, 30 min amino acid starvation, long-term amino acid and glucose starvation; conditions: partners not purified
Kog1-FLAG = molecular target: T1, Kog1-FLAG (S. cerevisiae, UniProt P38873 1-1557); test: co-IP; Kog1-FLAG immunopurified on anti-FLAG beads after DSP crosslinking; blot with anti-GFP and anti-FLAG; with and without amino acids, long-term amino acid and glucose starvation, also with 4x protease inhibitors; conditions: partners not purified
T1 construct: Kog1 (Raptor homolog), subunit of TORC1, S. cerevisiae; Bait on anti-FLAG beads; The strain list is in Supplementary file 3; also called Kog1/Raptor; TORC1 subunit Kog1; source: S. cerevisiae (W303) strain carrying Kog1-FLAG, in lysate
T1 sequence (P38873 whole entry): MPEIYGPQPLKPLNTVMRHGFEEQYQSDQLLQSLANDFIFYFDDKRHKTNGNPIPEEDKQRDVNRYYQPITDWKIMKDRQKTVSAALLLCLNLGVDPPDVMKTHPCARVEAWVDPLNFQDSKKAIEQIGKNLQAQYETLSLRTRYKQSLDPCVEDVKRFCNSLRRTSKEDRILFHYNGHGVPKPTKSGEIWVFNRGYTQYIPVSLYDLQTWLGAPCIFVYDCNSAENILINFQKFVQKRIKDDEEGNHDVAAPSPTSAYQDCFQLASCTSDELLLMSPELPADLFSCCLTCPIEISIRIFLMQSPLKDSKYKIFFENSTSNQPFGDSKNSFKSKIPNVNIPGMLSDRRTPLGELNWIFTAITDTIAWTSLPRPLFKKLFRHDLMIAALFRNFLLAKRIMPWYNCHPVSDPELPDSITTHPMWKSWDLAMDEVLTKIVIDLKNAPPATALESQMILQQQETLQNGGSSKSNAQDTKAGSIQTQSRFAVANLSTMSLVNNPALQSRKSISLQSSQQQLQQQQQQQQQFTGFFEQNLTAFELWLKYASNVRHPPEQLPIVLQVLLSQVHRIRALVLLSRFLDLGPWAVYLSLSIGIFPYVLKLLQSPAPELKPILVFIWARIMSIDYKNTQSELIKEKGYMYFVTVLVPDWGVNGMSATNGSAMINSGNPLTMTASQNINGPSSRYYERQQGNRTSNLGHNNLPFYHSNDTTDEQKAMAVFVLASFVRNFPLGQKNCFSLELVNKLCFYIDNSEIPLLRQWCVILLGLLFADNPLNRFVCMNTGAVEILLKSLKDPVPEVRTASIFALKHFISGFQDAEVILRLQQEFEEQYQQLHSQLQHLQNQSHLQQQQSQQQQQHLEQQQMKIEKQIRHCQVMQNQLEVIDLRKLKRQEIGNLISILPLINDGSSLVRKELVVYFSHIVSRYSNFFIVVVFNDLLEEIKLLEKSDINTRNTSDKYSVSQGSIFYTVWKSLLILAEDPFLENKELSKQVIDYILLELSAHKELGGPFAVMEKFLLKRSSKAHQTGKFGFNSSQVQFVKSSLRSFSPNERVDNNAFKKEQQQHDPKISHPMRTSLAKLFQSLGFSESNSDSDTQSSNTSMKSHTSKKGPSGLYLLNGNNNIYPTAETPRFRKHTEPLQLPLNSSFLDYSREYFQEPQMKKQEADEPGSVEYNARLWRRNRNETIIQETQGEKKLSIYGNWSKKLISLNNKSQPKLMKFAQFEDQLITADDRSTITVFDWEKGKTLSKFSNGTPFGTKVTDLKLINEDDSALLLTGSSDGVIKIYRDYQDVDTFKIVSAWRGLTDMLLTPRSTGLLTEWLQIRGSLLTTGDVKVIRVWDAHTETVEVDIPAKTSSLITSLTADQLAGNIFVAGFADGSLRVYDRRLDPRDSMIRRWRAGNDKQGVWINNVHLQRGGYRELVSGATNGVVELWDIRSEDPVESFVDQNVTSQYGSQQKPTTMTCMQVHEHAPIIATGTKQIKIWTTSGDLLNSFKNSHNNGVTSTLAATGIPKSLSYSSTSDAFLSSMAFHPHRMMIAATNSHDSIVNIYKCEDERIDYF

| amount copurified after long-term amino acid and glucose starvation, relative to log-phase growth (GFP-Ait1) | amount copurified after long-term amino acid and glucose starvation, relative to log-phase growth (Kog1-FLAG) | Binder |
| --- | --- | --- |
| 60 % of the level found in log-phase growth |  | B1 |
|  | 50 % of the level found in log-phase growth | B2 |
